{
  "source": "the DeepSol protein solubility set",
  "data": [
    {"test": "soluble on expression in E. coli; label from the status in PepcDB or PDB records", "values": [
      {"sequence": "GKSASGEKEGNENAEEEAAAIEEARREAEERRKEKHRKMEEEREEMRQTIRDKYGLKKKVKEEPEAEADLDEGRVGRKK", "soluble on expression in E. coli": "soluble"},
      {"sequence": "MSLTDLSRPTLPGALPDKRQVAASFSRAAASYDSVAALQRAVGLSLLEQLPAGLQPSHWLDLGSGTGHFSRMLAERFAQAGGVAVDIAEGMLLHARHVKGGAQYHVVGDAERLPLRDASVDLVFSSLAVQWCDQFASVLAEAQRVLRPGGVLAFSSLCVGTLDELRASWQAVDGLVHVNRFRRFEDYQRLCAASGFEQLELERCPHVLHYPDVRSLTHELKALGAHNLNPGRPSGLTGRARMQGLLQAYEAFRQPAGLPATYQVVYGVLRKPLAEGHHHHHH", "soluble on expression in E. coli": "not soluble"},
      {"sequence": "MKILLRNALITNEGKTFPGSVMIDGAFISRIIEGELPADDNLSADEVIECSGLRLFPGCIDDQVHFREPGLTHKATIASESRAAVAGGVTSFMDMPNTNPPTTMWERLLEKRQIGADTAWANYGFFFGGTNDNIDEIKRVDKHLVPGLKLFLGSSTGNMLVDNKETLEKIFGECDLLIATHCEKEEIIRANKEHYKAKYGNDLDIHFHPLIRSEEACYRSSAEAVELAERMNARLHILHLSTEKELSLFRNDIPTAQKRITSEVCVHHLWFSDTDYGRLGNRIKWNPAIKKESDREALRAAVRNGRIDIIATDHAPHLLREKEGSCLQAASGGPLVQHSLLALLELCNQGIFSIEEIVSKTAHIPATLFAIEKRGYIRPGYYADLVLVDPSSPHTVSADNILSLCGWSPFEGFTFSHSVAYTFVNGCLAYAKGRLAESRPTVHPLFFNR", "soluble on expression in E. coli": "soluble"},
      {"sequence": "MGHHHHHHSHMSPVLTQHVSQPITLDEQTQKMKRHLLQDIRRSAYVYRVDCGGCNACEIEIFAAITPVFDAERFGIKVVSSPRHADILLFTGAVTRAMRMPALRAYESAPDHKICVSYGACGVGGGIFHDLYSVWGGSDTIVPIDVWIPGCPPTPAATIHGFAVALGLLQQKIHAVDYRDPTGVTMQPLWPQIPPSQRIAIEREARRLAGYRQGREICDRLLRHLSDDPTGNRVNTWLRDADDPRLNSIVQQLFRVLRGLHD", "soluble on expression in E. coli": "not soluble"},
      {"sequence": "DVQKKTFTKWINARFSKSGKPPINDMFTDLKDGRKLLDLLEGLTGTSLPKERGSTRVHALNNVNRVLQVLHQNNVELVNIGGTDIVDGNHKLTLGLLWSIILHWQVKDVMKDVMSDLQQTNSEKILLSWVRQTTRPYSQVNVLNFTTSWTDGLAFNAVLHRHKPDLFSWDKVVKMSPIERLEHAFSKAQTYLGIEKLLDPEDVAVRLPDKKSIIMYLTSLFEVLPQ", "soluble on expression in E. coli": "soluble"},
      {"sequence": "MGSDKIHHHHHHMRRDTFAGRRTQQPACQIHRFARTDKCYRHQKNPAERRHFGLSQCPHRESIVFVYTKMYILLMDVDRVQVRAFRANIAEYLEQALQGQRIVIERHGGPVAALVPLADLYQITRKEKAMGHRIALNNVSGGEGKTFLTFHLAFALADLGFRVAVLDCDPQASLTKRFGLHDEEGAHQSGAETILPVFEVDDDPALPSPVTVEGIDVWPANRQLIDADTRIMTNMMRLGNLGEALDRIQDQYDFILLDTRPNVSPLLTASTAAARLFLVPIGAHKGLENLDELLRLVKLARKQDRSARIAFFIPNKVTSTRMGKNVLQSISAYTEVAPISPPVRQATIGPEAELFRTGITRHAPKSPLAGDIRTLANALVKATEQVEDAQ", "soluble on expression in E. coli": "not soluble"},
      {"sequence": "MSLVKDIYSESIQIQIAASSMLSENITNATQMVMQCLLGGNKVIACGVSRSYANAQFLVSNLLNRYDLVRPSFPSVLLSLESAVGSSLVFEQPPEELYCHQFNASAKSGDLLIAFAPLGTEKIVLNIISHAVSKEVNVIVLTGSNNDAIQGILADKDLEISIPATKESRILENHLFVINALCELVDQTLFPSAEGGSHHHHHH", "soluble on expression in E. coli": "soluble"},
      {"sequence": "MHHVYVIECSDGTYYTGYTTDVQRRVAEHNAGDGAKYTRGRTPVTLRHTESFDSKSEAMRREYRIKQLSRAQKEALFLEHHHHHH", "soluble on expression in E. coli": "soluble"},
      {"sequence": "MGSDKIHHHHHHMITIKEYVVPKSLDEAYELLISRKNNIILGGCGFLKLGSKNIGSAIDLKDLALDYINETDDSILIGADTSLRTLELNKVIKNYCNGVISNAVSNIVGVQFRSGARVGASVFAKYGFSDLIPSLLVVDAKVKLYKKGVMNLADFLENELEKDILIEVILPKKDAIGVFDSIRKCTGDFAVLNGAMLKEGSIYKIAIGARPRRAKIAYKASEILSLENDIEKAGEVSSEELSFGSNIRGSKEYRKDMAKALVVRMYNSIGGECDGK", "soluble on expression in E. coli": "not soluble"},
      {"sequence": "MGSDKIHHHHHHVHACGAETAPRCVTSYPFAQMPTAQTKKEKRPPASIESRIAECYDELSEIDQRLADVILSAPGQLAMQTATELASSAQVSKATATRFFQKLGYASYDDARAIARAAQVGGSPLYLQDRGRKTAGSKLDDVIQRHLQHEVENMANTYRSLDTQVLSEVVDAIAQARRVAIIGYRHSYTVATMIRRELIQVRSDVMLLPAPGDTIGEYLADLNAKDLAIVIGLRRRVPAVGLATAALAEAGVPVVYMSDVIAGKPARLARWVIRCHTDGLMLFDSKAGMTAVVNLICSLVAERVLDRSNSHLQRVEVLHDSLRELE", "soluble on expression in E. coli": "not soluble"},
      {"sequence": "MSLFFDKVIRLNIGGKRFDTHKSTLMKFDGYFKKFLQTPGSSLVDPIFVDRSPTYFDIVLNFMRKGRADLPETLKDLKMLLGEAEYYELTELCDDCKREISRLDIGIESEPFYEIIPEPSVVARNNNNTIPNNVVEVGS", "soluble on expression in E. coli": "soluble"},
      {"sequence": "MGSDKIHHHHHHMTNRCLYCYEPLVDGEMDYHAKCCRKLFGTPQAPILPYTSSEVRALADEVVRSQTTVTGVQPKLSLDFDQMSNSPKRFTIVGLWGRFILKPQTERYSHLPELEDVSMHLAEIAKIETVPHGLMRFSDGELCYITRRIDRTGQGEKLPMEDMCQLSERLTEYKYKGSHEQVAKLISKYSSVPKLDLVKYWEQVLFSWLIGNADMHLKNYSLYAPEGNEYQLTPAYDLLSTALVIPEDTEELALTLCGKKRKLTRQHFLEAMTASGLDEKVCDNIFARFQHILPEWEACIRQSFLPTEMQRQYIEFILLKFSQI", "soluble on expression in E. coli": "not soluble"},
      {"sequence": "NPVSKRSRGKGMLGGAKRAARTHRASGTAVEELVFPYEHPVPQVGTLTSVELTIPLMRDGVVVEGLPTLEESRAYLAQQLVTIPWEGLALSRDEPVLATRHVGFDQ", "soluble on expression in E. coli": "not soluble"},
      {"sequence": "MGSDKIHHHHHHMWPNPALDTITHQWAQVFTNGGGLASLTDMIEQDVVVVGGGMVGAALAAGLGRAGLSVTVLENHMPQAFEASQPLDVRVSALSVASEALLERLDAWAGILSRRAVPYLGLETWEIESCITRFHASQIGADHLGHIVENRVVQLALWDLLSTLDSVTVKAPVNVMGFERLVDEDAICVALDSGERIKAKLLVGADGANSQVRAFAHIGVTGWDYAQSAMLINIATACEQQDVTWQQFTPQGPRSLLPLPGKNASLVWYDDASTIARLAKLNPNELADSIRAHFPARLDRDFRVLDKGHFKLTRRHAQRYFDANLVLIGDAAHTINPLAGQGVNLGFKDVDVLLDEIVSAVKKGENWHTKSVLERYQQRRWRDNQLMMSTMDAFYASFSNDLLPVKLLRNAALRLANVDGPIKRQVLKYAMGLK", "soluble on expression in E. coli": "not soluble"},
      {"sequence": "MGSDKIHHHHHHMNFTQNEKLKQLSERSIVIGVDIASELHYARAFDWRGVELGKVFKFENSAEGFKNLYAWIERIKRQAQKDSIVVGAEPTGHYWFGLASYLKEQNIKLVLVNPFHVKRSKELDDNHPSKTDAKDPKTIAKLVIEGRYNEPYIPEGLYAELRIAVTCRVRIQKEMNSIKNRIQRWLKIYFPEHETVFGKFDATSSMLVLQVAPLPRDIERLGVEGINRIWRDNKLRAVGMKRAKSLYEAAQKSIGCTEGESCSRMEIQLLLQDYHTKTAQYQAVTETIDGLCRQIPEVAKLLEIKGVGLVTVAGFLSEVGDIKRFNSPKQIQKLAGLALRESSSGKHKGQTTISKRGRARLRAILFQAVMPLVAKNAEFAEIHNYYTTRTQNPLKKKQSLIALSCKLIRVFYAILTKGTDYDPKKLIMDIHRPVEYLAA", "soluble on expression in E. coli": "not soluble"},
      {"sequence": "GVKCEPIEELTISVPEEYSSKMIDMVTRRKGDLVSMETQGDRVNIEFDMPSRGIIGLRTNVLTASAGEAIMAHRFKCYQPYKGEIERRSNGSMIAMESGTAFAYAIDKLQDRGKFFIYPQDEVYAGQV", "soluble on expression in E. coli": "not soluble"},
      {"sequence": "MELFLAGRRVLVTGAGKGIGRGTVQALHATGARVVAVSRTQADLDSLVRECPGIEPVCVDLGDWEATERALGSVGPVDLLVNNAAVALLQPFLEVTKEAFDRSFEVNLRAVIQVSQIVARGLIARGVPGAIVNVSSQCSQRAVTNHSVYCSTKGALDMLTKVMALELGPHKIRVNAVNPTVVMTSMGQATWSDPHKAKTMLNRIPLGKFAEVEHVVNAILFLLSDRSGMTTGSTLPVEGGFWAC", "soluble on expression in E. coli": "soluble"},
      {"sequence": "FCYSFCKNYANEIKKIITDFIEHNKINFQNEIENAFITSVIIVHTGIDAFSISLLI", "soluble on expression in E. coli": "not soluble"},
      {"sequence": "MISSGWMQEMEPIPEEGTEADGSEWGAMSDTAKRTMRKKEVYTSEQINTLVSTVPKEAVPQEWLVENQVVDPEMATSYLTESLAGPTSARGSSYSYSYESHYDNPPEEEYEHFTNDDGVHQMQKVTRVTKVTTTRSVRQVPVQSPYSNIDFDSSGLPTPSPVIDRDPSLEMMARMGGASDHDSEDRSAPPPAPASRFLHEDSGIPSAPGVPDVVDAGIGEVTVVWSAPLQSNGGEVRGYQIEMREFPDGEWESMGVDHLLKDTTCRVTNLTSHEVQFRVSAYGRTGFGPASNPSLPVKIPISETDLATSAGAPLAPGRPTVIAVDGQGVLLEWTPPVADVHSSPPQGYQVEYRVYGSRDWIVANEQLVQENVFTVESLRPNGVYEFRVRGKNQDGLGHPSMSSGGVAIRPAAPQRHVPARKVSESVQPPGQPQMVEVGDDVVKLEWAPSVQNARYIVEYREVGDPEWHTANYDPIVQNGIQVEGLHRNSTYEFCVISIVDNIASQPSETSDIIHLRPTCNTSALRPAPNILEAPEFLEVDGDKITICWLPAQSQLPVMGYDVEFRDLQQDDRWYKVNDQPVFACKMTVGDLIMDHDYQFRVLAHNASGCSQPSPPSDFVHIEPSTNRFSSDTMESPHLGHHDVVKYVEAERFGAVPLLQEEMVRESPPLPERDDSPPPLRRANNNVQWRDPSLKEVIEYLSSADKDKQLNASGYLQHLTYTDNQIKEETREYGGIPKLIALLRSDTPRIQKNACACLKNLSFGKENDANKLAVMEADGVRLIAEVLRTTHDASVKEEAAAALWNLSSADMLKPVILESATEILSQQVIAPVLAVGTSDPTRHFGSTLFKNSTGVLRNVSAASQQARRRLRDIPNLIEALVHFLTHAIQKSQVDSPTVENAVCLLRNLSYRIQEVVDPNYDPAAAHSSSSKNMKHVASPKPEKKKKDKEKKKDKNPKNIVTGPSVLWQPHVVKLYLKLLQDSSNIETLEASAGAIQNLAACQFPPSAEVRAAVRVEKGLPVLVELIRLPEDFVVCAVATALRNLAIDPRNRELIGKYALRDFLDKLPEPGSPRRSAISDQTIGAVLGILFEIVRSSAAYTKDVHELKGTDKLRALSRSYPTYSHRVCKYASQVLYVMWQHKELHDGFKRSGLKEADFYSGTARRGDSSTLARPISSQGRERPSMHQLDETLSSGGGYGTMESNNRAGTLRPASATSQTIQRRYDQVPRDGPVYSSVQKPSPRGGGGGGNIDDSWV", "soluble on expression in E. coli": "not soluble"},
      {"sequence": "MAQQKKTIAVVGATGRQGASLIRVAAAVGHHVRAQVHSLKGLIAEELQAIPNVTLFQGPLLNNVPLMDTLFEGAHLAFINTTSQAGDEIAIGKDLADAAKRAGTIQHYIYSSMPDHSLYGPWPAVPMWAPKFTVENYVRQLGLPSTFVYAGIYNNNFTSLPYPLFQMELMPDGTFEWHAPFDPDIPLPWLDAEHDVGPALLQIFKDGPQKWNGHRIALTFETLSPVQVCAAFSRALNRRVTYVQVPKVEIKVNIPVGYREQLEAIEVVFGEHKAPYFPLPEFSRPAAGSPKGLGPANGKGAGAGMMQGPGGVISQRVTDEARKLWSGWRDMEEYAREVFPIEEEANGLDWML", "soluble on expression in E. coli": "soluble"},
      {"sequence": "MPAIFTHEGKVEGVPGNYPLTAENLFRIGLALCTLWILDKEIEEPTLSIPETNFVTLALSVGFMNAGGSVNVGKGGDIKLFLQKGEIYVLEFQPLSETDIKKLESILFGRAPIPKKTGEDIGSFKC", "soluble on expression in E. coli": "soluble"}
    ]}
  ]
}
